Drawing on PMC6080896, this text covers fold weakening of affinity against WT stac3, fold reduction of binding against WT stac3 and Kd for four substances.

This test concerns the target Venus-tagged CaV1.1 CI (Ven-CaV1.1 CI) (UniProt P07293). Description: FRET or BRET. A general note: Bioluminescence resonance energy transfer reports proximity on the nanometre scale.

Chain of Cer-tagged stac3 variant L[111]Δ (natural protein) (Q96MF2 whole entry, stated change not applied): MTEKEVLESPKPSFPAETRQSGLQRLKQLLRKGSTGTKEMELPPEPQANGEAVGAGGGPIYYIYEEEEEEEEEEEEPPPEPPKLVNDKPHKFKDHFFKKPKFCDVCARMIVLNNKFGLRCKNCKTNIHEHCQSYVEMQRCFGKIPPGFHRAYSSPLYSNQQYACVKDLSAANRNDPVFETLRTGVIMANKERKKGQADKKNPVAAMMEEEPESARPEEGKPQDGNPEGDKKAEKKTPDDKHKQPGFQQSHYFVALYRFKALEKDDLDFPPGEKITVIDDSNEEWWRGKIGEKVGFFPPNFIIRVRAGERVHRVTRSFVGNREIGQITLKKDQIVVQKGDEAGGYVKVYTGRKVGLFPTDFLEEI
Chain of Cer-tagged stac3 variant W[284]S (Native American myopathy) (natural protein) (Q96MF2 whole entry, change not shown): as the sequence (Q96MF2 whole entry, stated change not applied) above
Chain of Cer-tagged stac3 variant K[288]* (domain or fragment) (Q96MF2 whole entry, change not shown, the tested form may be a part): as the sequence (Q96MF2 whole entry, stated change not applied) above

“Cer-tagged stac3 variant L[111]Δ (natural protein)” showed a fold weakening of affinity against WT stac3 of 10 fold.

In turn, “Cer-tagged stac3 variant K[288]* (domain or fragment)” came in with a fold reduction of binding against WT stac3 of 2 fold. For the substance “Cer-tagged stac3 variant W[284]S (Native American myopathy) (natural protein)”, the fold weakening of affinity against WT stac3 amounted to 10 fold. With “Cer-tagged stac3 (wild type) (natural protein)”, the Kd (usually the constant that tells how readily two partners part at equilibrium) amounted to 400 nM.
